Measurements reported in article PMC10923870, “A three-level regulatory mechanism of the aldo-keto reductase subfamily AKR12D” (Nature Communications, 2024).

What was measured:
AKRtyl = molecular target: T1, AKRtyl (Streptomyces xinghaiensis, UniProt A0A3R7J519); test: X-ray crystal structure ([…] Å), equilibrium tryptophan fluorescence quenching and stopped-flow; type: binding
T1 construct: gene SFRA_012675; N-terminally His6-tagged AKRtyl, octamer

AKR_coelicolor = molecular target: T2, AKR_coelicolor (Streptomyces coelicolor, UniProt Q9F2Z5); test: steady-state kinetics, inhibition at high NADPH concentration; type: biochemical
T2 construct: gene SCO4352
T2 sequence (Q9F2Z5 1-330): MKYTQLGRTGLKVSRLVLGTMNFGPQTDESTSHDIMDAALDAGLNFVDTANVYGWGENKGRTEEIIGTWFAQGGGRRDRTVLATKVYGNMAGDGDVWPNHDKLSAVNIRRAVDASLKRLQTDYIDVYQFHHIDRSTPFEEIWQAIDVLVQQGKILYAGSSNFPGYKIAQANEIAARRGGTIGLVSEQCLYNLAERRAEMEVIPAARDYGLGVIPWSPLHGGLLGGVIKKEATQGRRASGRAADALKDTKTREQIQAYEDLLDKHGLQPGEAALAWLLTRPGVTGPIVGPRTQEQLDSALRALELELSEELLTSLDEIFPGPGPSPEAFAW

[1] = system: NC(=O)C1=CN([C@@H]2O[C@H](COP(=O)(O)OP(=O)(O)OC[C@H]3O[C@@H](n4cnc5c(N)ncnc54)[C@H](OP(=O)(O)O)[C@@H]3O)[C@@H](O)[C@H]2O)C=CC1; test: tryptophan fluorescence quenching (equilibrium and stopped-flow); steady-state kinetics (Km); type: biochemical, Streptomyces xinghaiensis; conditions: Trp331 of the C-terminal tail loop contributes to binding of both NADPHs; varied: cofactor
[2] = molecular target: the molecule itself; test: crystal structure; sitting-drop vapour diffusion at 20 °C; AKRtyl at 10 mg/ml in 10 mM Tris-HCl pH 7.5, 150 mM NaCl; purified-state, apo, NADP(H), NADP+-tylosin and tylosin forms, all octameric

NC(=O)C1=CN([C@@H]2O[C@H](COP(=O)(O)OP(=O)(O)OC[C@H]3O[C@@H](n4cnc5c(N)ncnc54)[C@H](OP(=O)(O)O)[C@@H]3O)[C@@H](O)[C@H]2O)C=CC1 [NADPH]
Kd (AKRtyl): 450 nM
steady-state kinetics, inhibition at high NADPH concentration (AKR_coelicolor): inhibition by the cofactor NADPH at high concentrations was also observed for these two AKRs

AKRtyl (Streptomyces xinghaiensis; W331A)
K0.5 [1]: 11.03 µM
kcat [1]: 0.18 ± 0.01 s⁻¹
kcat/Km [1]: 16300 M⁻¹ s⁻¹

B1: AKRtyl (tylosin reductase, aldo-keto reductase AKR12D1) (enzyme, S. fradiae)
chain: MEYTQLGRIGLKVSRLVLGTMNFGPTTDEAESHAIMDAALDAGINFFDTANVYGWGENKGRTEEILGSWFAQGGDRRDKVVLATKVYGNMGLDGPAWPNHDKLSALNIRRSVDASLKRLGTDHIDLYQFHHVDRDTPWDEIWQAMDVLVRQGKILYVGSSNFAGWNIAQANETAARHGRLGLVSEQCLYNLCERRAEMEVVPAAREYGLGVIAWSPLHGGLLGGAIRKEQEGGNRRAASGRAADALKDPQQREQIQRYEDLLDKHGLEPGEVALAWLLTRPGVTGPIVGPRTADQLASAVRAAELTLTDEVLTALDEIFPGPGPSPEAFAW
notes: AKRtyl, tylosin reductase of the tylosin producer S. fradiae, UniProt A0A3R7J519; protein coding gene cloned into pET28a between NdeI and XhoI; Octamer made of two homotetramers; also called WT; source: E. coli BL21 (DE3), purified (Ni-NTA, size-exclusion chromatography on Superdex 200 increase)
stoichiometry N [2]: 8
